Measured values taken from US7226791B2, “Polynucleotides encoding novel guanylate binding proteins (GBP's)” (Bristol-Myers Squibb Company, priority 2003, dated 2007).

Experiments:
Settings in all cases: myc-tagged protein expressed in Cos-7 cells; FIG. 49
[1] = Guanine nucleotide binding: Cos-7 lysates on agarose coated with GDP, myc western blot
Method: (§1) Genes encoding different GBP family members were cloned into the vector pcDNA3.1mychis (Invitrogen) for expression in mammalian cells. Cos-7 cells were transfected with 5 μg of DNA per group using lipofectamine 2000 (Invitrogen) according to manufacturer's instructions. Approximately 18 hours after transfection, the cells were harvested using trypsin and lysed in RIPA buffer (10 mM sodium phosphate pH 7.2, 0.25 M sodium chloride, 0.1% SDS, 1% NP40, 1% sodium deoxycholate, 2 mM EDTA, protease inhibitor cocktail). An aliquot of the lysate was reserved for the whole cell lysate sample. The remainder was divided in thirds, and incubated for three hours at 4° C. with agarose coated with either GTP, GDP, or GMP (Sigma Chemical Company). The beads were pelleted, washed with buffer (0.1% NP40, 150 mM NaCl, 50 mM Tris pH7.5), and resuspended in SDS sample buffer. Samples were electrophoresed through 4–20% tris-glycine gels, transferred to nitrocellulose, blocked overnight with 5% non-fat dry milk and 0.3% BSA in Tris-buffered saline, and probed with a mouse monoclonal antibody specific for the myc epitope tag (Invitrogen).

[2] = Guanine nucleotide binding: Cos-7 lysates on agarose coated with GMP, myc western blot
Method: as §1

[3] = Guanine nucleotide binding: Cos-7 lysates on agarose coated with GTP, myc western blot
Method: as §1

Molecule	binding to GDP agarose beads [1]	binding to GMP agarose beads [2]	binding to GTP agarose beads [3]
GBP-1: known guanylate binding protein family member, myc-tagged, expressed in Cos-7 cells (protein, UniProt P32455 1-589, looked up, myc tag) Guanylate-binding protein 1: MASEIHMTGPMCLIENTNGRLMANPEALKILSAITQPMVVVAIVGLYRTGKSYLMNKLAGKKKGFSLGSTVQSHTKGIWMWCVPHPKKPGHILVLLDTEGLGDVEKGDNQNDSWIFALAVLLSSTFVYNSIGTINQQAMDQLYYVTELTHRIRSKSSPDENENEVEDSADFVSFFPDFVWTLRDFSLDLEADGQPLTPDEYLTYSLKLKKGTSQKDETFNLPRLCIRKFFPKKKCFVFDRPVHRRKLAQLEKLQDEELDPEFVQQVADFCSYIFSNSKTKTLSGGIQVNGPRLESLVLTYVNAISSGDLPCMENAVLALAQIENSAAVQKAIAHYEQQMGQKVQLPTETLQELLDLHRDSEREAIEVFIRSSFKDVDHLFQKELAAQLEKKRDDFCKQNQEASSDRCSALLQVIFSPLEEEVKAGIYSKPGGYRLFVQKLQDLKKKYYEEPRKGIQAEEILQTYLKSKESMTDAILQTDQTLTEKEKEIEVERVKAESAQASAKMLQEMQRKNEQMMEQKERSYQEHLKQLTEKMENDRVQLLKEQERTLALKLQEQEQLLKEGFQKESRIMKNEIQDLQTKMRRRKAC	bound well	bound well	bound well
GBP-2: known guanylate binding protein family member, myc-tagged, expressed in Cos-7 cells (protein, UniProt P32456 1-588, looked up, myc tag) Guanylate-binding protein 2: MAPEINLPGPMSLIDNTKGQLVVNPEALKILSAITQPVVVVAIVGLYRTGKSYLMNKLAGKKNGFSLGSTVKSHTKGIWMWCVPHPKKPEHTLVLLDTEGLGDIEKGDNENDSWIFALAILLSSTFVYNSMGTINQQAMDQLHYVTELTDRIKANSSPGNNSVDDSADFVSFFPAFVWTLRDFTLELEVDGEPITADDYLELSLKLRKGTDKKSKSFNDPRLCIRKFFPKRKCFVFDWPAPKKYLAHLEQLKEEELNPDFIEQVAEFCSYILSHSNVKTLSGGIPVNGPRLESLVLTYVNAISSGDLPCMENAVLALAQIENSAAVEKAIAHYEQQMGQKVQLPTETLQELLDLHRDSEREAIEVFMKNSFKDVDQMFQRKLGAQLEARRDDFCKQNSKASSDCCMALLQDIFGPLEEDVKQGTFSKPGGYRLFTQKLQELKNKYYQVPRKGIQAKEVLKKYLESKEDVADALLQTDQSLSEKEKAIEVERIKAESAEAAKKMLEEIQKKNEEMMEQKEKSYQEHVKQLTEKMERDRAQLMAEQEKTLALKLQEQERLLKEGFENESKRLQKDIWDIQMRSKSLEPIC	bound well	bound well	bound well
GBP-5: known guanylate binding protein family member, myc-tagged, expressed in Cos-7 cells (protein, UniProt Q96PP8 1-583, looked up, myc tag) Guanylate-binding protein 5: MALEIHMSDPMCLIENFNEQLKVNQEALEILSAITQPVVVVAIVGLYRTGKSYLMNKLAGKNKGFSVASTVQSHTKGIWIWCVPHPNWPNHTLVLLDTEGLGDVEKADNKNDIQIFALALLLSSTFVYNTVNKIDQGAIDLLHNVTELTDLLKARNSPDLDRVEDPADSASFFPDLVWTLRDFCLGLEIDGQLVTPDEYLENSLRPKQGSDQRVQNFNLPRLCIQKFFPKKKCFIFDLPAHQKKLAQLETLPDDELEPEFVQQVTEFCSYIFSHSMTKTLPGGIMVNGSRLKNLVLTYVNAISSGDLPCIENAVLALAQRENSAAVQKAIAHYDQQMGQKVQLPMETLQELLDLHRTSEREAIEVFMKNSFKDVDQSFQKELETLLDAKQNDICKRNLEASSDYCSALLKDIFGPLEEAVKQGIYSKPGGHNLFIQKTEELKAKYYREPRKGIQAEEVLQKYLKSKESVSHAILQTDQALTETEKKKKEAQVKAEAEKAEAQRLAAIQRQNEQMMQERERLHQEQVRQMEIAKQNWLAEQQKMQEQQMQEQAAQLSTTFQAQNRSLLSELQHAQRTVNNDDPC	bound well	bound well	weakly
